Results published in patent US20090311265A1.

Molecular target: HA of BPL-inactivated virus preparation of strain A/New Caledonia/20/99 (H1N1) (influenza A virus A/New Caledonia/20/99 (H1N1))
Experiment: ELISA, coated inactivated virus, IgG 5 µg/ml

| Substance | OD 492 nm [OD 492 nm] |
| --- | --- |
| CR3014 (antibody) | 0.09 |
| CR6261 (antibody) | 1.46 |
